{
  "source": "paper PMC10440729",
  "about": "(Journal of the American Chemical Society, 2022)",
  "key": {"[1]": {"system": "STZ-induced C57BL/6J diabetic mouse model", "experiment": "Blood glucose lowering in STZ-induced diabetic mice", "assay_type": "in vivo", "settings": "5 IU insulin/kg subcutaneous, blood glucose after 4 hours, n = 3"}, "[2]": {"settings": "reported value, cited from earlier work"}, "[3]": {"experiment": "DOSY NMR diffusion coefficient / oligomerization state", "assay_type": "physicochemical", "settings": "4 °C, suggests a mixture of dimers and hexamers"}},
  "data": [
    {"substance": "2A-S-Ins: discrete 2A IEG polytriazole (all S) conjugated to N-terminus of insulin chain B by SPAAC", "values": [
      {"measurement": "duration of blood glucose response", "setting": "[1]", "result": "longer-lasting effects than Lantus"}
    ]},
    {"substance": "insulin", "values": [
      {"measurement": "reported D of dimers", "setting": "[2]; insulin dimers", "result": "1.22 × 10^−6 cm^2/s"},
      {"measurement": "reported D of hexamers", "setting": "[2]; insulin hexamers", "result": "0.87 × 10^−6 cm^2/s"},
      {"measurement": "diffusion coefficient (D)", "setting": "[3]", "result": "~ 1 × 10^−6 cm^2/s"}
    ]}
  ]
}
